Measured values published in article PMC10403576, “The Ycf48 accessory factor occupies the site of the oxygen-evolving manganese cluster during photosystem II biogenesis” (Nature Communications, 2023).

T1: PsaI subunit of PSI (Synechocystis sp. PCC 6803, UniProt Q55330 1-40)
T1 construct: PsaI of Synechocystis sp; PCC 6803; source: endogenous, Synechocystis sp; PCC 6803 strain His-D2/ΔCP47; co-purified with His-tagged D2 (Ni-NTA, sucrose gradient)
T1 chain (looked up): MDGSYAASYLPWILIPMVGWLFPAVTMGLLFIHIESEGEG


How the values were obtained:
PsaI subunit of PSI = molecular target: T1, PsaI subunit of PSI; experiment: cryo-EM structure; RCII/PSI complex co-purified from Synechocystis via His-tagged D2; 0.1% FOM; two classes at 3.2 Å and 3.1 Å, PSI-focused map at 2.9 Å; settings: both partners purified
PsaB RC subunit of PSI = molecular target: T2, PsaB RC subunit of PSI (Synechocystis sp. PCC 6803, UniProt P29255 1-731); experiment: as above; settings: both partners purified
T2 construct: PsaB of Synechocystis sp; PCC 6803; source: endogenous, Synechocystis sp; PCC 6803 strain His-D2/ΔCP47; co-purified with His-tagged D2 (Ni-NTA, sucrose gradient)
T2 sequence (P29255 whole entry): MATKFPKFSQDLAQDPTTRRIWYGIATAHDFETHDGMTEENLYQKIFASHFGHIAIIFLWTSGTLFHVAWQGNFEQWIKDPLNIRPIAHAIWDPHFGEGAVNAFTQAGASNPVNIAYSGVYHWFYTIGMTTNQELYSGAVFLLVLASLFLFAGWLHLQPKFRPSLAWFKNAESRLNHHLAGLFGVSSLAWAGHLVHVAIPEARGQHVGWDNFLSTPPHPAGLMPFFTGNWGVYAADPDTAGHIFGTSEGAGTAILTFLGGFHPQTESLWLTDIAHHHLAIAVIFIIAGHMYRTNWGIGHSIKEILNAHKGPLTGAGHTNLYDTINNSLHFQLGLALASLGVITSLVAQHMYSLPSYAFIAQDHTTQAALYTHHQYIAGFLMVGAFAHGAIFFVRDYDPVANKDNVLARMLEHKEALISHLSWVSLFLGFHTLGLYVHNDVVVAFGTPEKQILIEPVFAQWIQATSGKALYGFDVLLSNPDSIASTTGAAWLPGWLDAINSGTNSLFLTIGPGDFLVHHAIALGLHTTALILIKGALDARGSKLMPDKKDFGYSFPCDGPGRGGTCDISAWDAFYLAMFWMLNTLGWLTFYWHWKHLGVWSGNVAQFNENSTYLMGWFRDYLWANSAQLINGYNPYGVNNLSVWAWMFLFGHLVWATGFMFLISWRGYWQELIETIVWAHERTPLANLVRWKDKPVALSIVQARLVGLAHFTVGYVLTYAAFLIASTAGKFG

binding result (PsaI subunit of PSI) | binding result (PsaB RC subunit of PSI) | Binder
binds | – | PsbF, beta subunit of Cyt b-559 (natural protein, PsbF (cytochrome b-559 beta subunit) of Synechocystis sp; PCC 6803; source: endogenous, Synechocystis sp; PCC 6803 strain His-D2/ΔCP47; co-purified with His-tagged D2 (Ni-NTA, sucrose gradient)) not shown
– | binds | PsbI subunit of PSII (natural protein, PsbI of Synechocystis sp; PCC 6803; source: endogenous, Synechocystis sp; PCC 6803 strain His-D2/ΔCP47; co-purified with His-tagged D2 (Ni-NTA, sucrose gradient)) not shown
